Source: patent US6200577A, “Anti-herpesviral agents and assays therefor” (priority 1996, dated 2001)

Assays:
[1] = biological target: T1, VP16/VP22trunc interaction (Human herpesvirus 1, UniProt P06492); assay: Co-purification of VP16 with VP22trunc on Ni-NTA resin in presence of peptides; format: binding, HSV-1; settings: crude peptide at 2 mg/ml (about 1 mM), equal volume mixed with partially purified VP16 extract before VP22trunc
T1 construct: Plasmid pETVP16 was used to express full-length VP16 under the control of the T7 RNA polymerase promoter; made in house; host or cells: E. coli BL21(DE3)
Experimental: FIG. 4 Co-elution of VP16 with VP22trunc from Ni-NTA resin. Partially purified extract containing VP16 was incubated in the absence of (lane 14) or presence of […] of VP22trunc (lanes 3 to 13). In lanes 3 to 12, an equal volume of the individual peptides at 2 mg/ml was added to the extract prior to VP22trunc. Peptides added to each reaction were as follows: lane 3, peptide A; lane 4, peptide B; lane 5, peptide C; lane 6, peptide D; lane 7, peptide E; lane 8, peptide F; lane 9, peptide G; lane 10, peptide H; lane 11, peptide I; lane 12, peptide J; lane 13, no peptide. Lanes 3 to 14 show the polypeptides eluted from Ni-NTA resin. Other samples were as follows: lane 1, partially purified VP16 extract, lane 2, purified VP16; lane 15, purified VP22trunc. Samples were electrophoresed on a 12% polyacrylamide gel and the apparent molecular weights of VP16 (65 KDa) and VP22trunc (16 KDa) are shown.
Co-purification of VP16 with VP22trunc on Ni-NTA Resin. Purified VP22trunc and a partially purified extract containing VP16, both in 20 mM Tris-HCl, pH8.0, 250 mM NaCl, were mixed at 4° C. for 15 to 30 minutes on a rotator. 50 μl of equilibrated Ni-NTA resin was added to each mixture and incubation was continued at 40C for a further 15 to 30 minutes. Resin was pelleted at 800 g for 1 minute and the supernatant (non-bound fraction) was removed. Resin was washed sequentially with 0.5 ml of 20 mM Tris-HCl, pH 8.0, 250 mM NaCl, 5 mM imidazole (twice) and 0.5 ml of 20 mM Tris-HCl, pH 8.0, 250 mM NaCl, 60 mM imidazole (four times). Bound protein was eluted by addition of 50 μl of boiling mix (160 mM Tris-HCl, pH 6.7, 2% SDS, 700 mM β-mercaptoethanol, 10% glycerol, 0.002% bromophenol blue) followed by heating to 100° C. for 5 minutes. For peptide studies, peptides were dissolved in 20 mM Tris-HCl, pH8.0, 250 mM NaCl at a concentration of 2 mg/ml. Incubation of peptides with partially purified VP16 extracts was performed at ambient temperature for 2 hours prior to the addition of VP22trunc. Samples were electrophoresed on denaturing polyacrylamide gels.
Results presented in Section 2(i) had shown that VP16 co-elutes from Ni-NTA resin in the presence of VP22trunc and it was concluded that this indicated interaction between these polypeptides. The ability of synthetic peptides to inhibit this interaction was analysed by mixing them individually with the partially purified VP16 extract prior to addition of VP22trunc. From the intensity of the 65 KDa species in the crude extract (FIG. 4, lane 2), it was estimated that the concentration of VP16 was approximately […]. To ensure that experiments were performed in an excess of peptide, peptides were prepared at a concentration of 2 mg/ml (about 1 mM) and equal volumes of peptide and extract were mixed. This gave a relative molar ratio of VP16 to peptide of 1:300. However, it should be noted that certain peptides were not completely soluble (Table 1) and in those cases, the ratio would be reduced.

VP16 = biological target: T2, VP16 (Human herpesvirus 1, UniProt P06492); assay: ELISA of direct binding of VP16 to plate-coated peptides; set-up: species or system HSV-1; settings: wells coated with peptide up to 500 μg/ml; VP16 1.6 μg/ml; FIG. 10
T2 construct: Plasmid pETVP16 was used to express full-length VP16 under the control of the T7 RNA polymerase promoter; made in house; host or cells: E. coli BL21(DE3)
Experimental: FIG. 10 Binding of VP16 to peptides. Microtitre plates were coated with 5-fold dilutions of peptides ranging from 500 μg/ml to 1 μg/ml and blocked with PBS/10% NCS. VP16 was then added to a final concentration of 1.6 μg/ml and detected with LP1. The legend for the peptides added is shown to the right of the graph.
Dilutions of proteins in PBS were coated overnight onto flat bottomed micro-titre plates (Dynatech) at 37° C. and then blocked with either 2% BSA or 10% new-born calf serum (NCS) in PBS for 1 hour at 37° C. Specific binding of a second protein to the plate-bound protein was performed for 1.5-2 hours at ambient temperature. a Excess secondary protein was removed by washing four times with PBS, 0.3% Tween 20. Bound protein was detected by incubation for 1.5-2 hours with LP1 antibody in PBS, 1% gelatin or PBS, 2% NCS. The bound antibody was detected by incubation for 1 hour at ambient temperature with anti-mouse antibody conjugated to HRP (1:500) and visualised with Smg/ml enzyme substrate 2,2'-azino-bis(3-ethylbenzthiazoline-6-sulphonic acid) (ABTS; Sigma) in citrate-phosphate buffer containing 6 μl hydrogen peroxide in a total volume of 20 ml. Optical densities were measured on a Titertek Multiscan PLUS instrument.
To examine whether VP16 could bind directly to the peptides, wells were coated with each peptide (A-J) at a range of concentrations from […] to 500 μg/ml and the plate was then blocked with […]. […] Nonetheless, the data for peptides D and E implicate direct binding of these peptides to VP16 as the mechanism for inhibiting its interaction with VP22. Peptide H also was active in experiments which prevented gB binding to VP22trunc [Section 4 (iii)] and thus also forms an aspect of the invention.

gB/VP22trunc binding = biological target: T3, gB/VP22trunc binding (Human herpesvirus 1, UniProt P10211); assay: Far Western analysis of peptide inhibition of GST-gB binding to VP22trunc; set-up: species or system HSV-1; settings: peptide 250 μg/ml co-incubated with GST-gB 1.2 μg/ml; FIG. 12B
T3 construct: linked residues 798 to 904 of gB to the glutathione-S-transferase (GST) protein expressed by pGex2TNMCR; made in house; host or cells: GST-gB: E. coli DH5alpha; VP22trunc: E. coli BL21(DE3)
Experimental: (B) Inhibition of binding of GST-gB (final concentration 1.2 μg/ml)and each of the following peptides at a final concentration of 250 μg/ml: lane 1, no peptide; lane 2, peptide A; lane 3, peptide B; lane 4, peptide C; lane 5, peptide D; lane 6, peptide E; lane 7, peptide F; lane 8, peptide G; lane 9, peptide H; lane 10, peptide I; lane 11, peptide J. Bound GST-gB was detected with anti-GST antibody.
Following electrophoresis, proteins were electrotransferred to either Hybond or ProBlott (Applied Biosystems) membrane and the membrane was incubated in renaturation buffer (50 mM Tris-HCl, pH 8.0, 150 mM NaCl, 10% glycerol, 1 mM DTT) at 4° C. for 5-6 hours.
For membranes probed with GST-gB, blocking was performed overnight in PBSA containing 1% non-fat dried milk and 0.05% Tween 20 at 4° C. Membranes were then washed twice in renaturation buffer (10 min/wash) prior to incubation with fusion protein (final concentration 0.5 μg/ml) in renaturation buffer containing 1% BSA. Incubation was again performed overnight at 4° C. Following washing with renaturation buffer (four times, 10 minutes/wash) and a brief rinse with blocking buffer, the membrane was incubated with anti-GST antibody in PBSA, 1% non-fat dried milk, 0.05% Tween 20 and 1% BSA for 1 hour at ambient temperature. After four washes with PBSA, 0.05% Tween 20 (10 minutes/wash), bound antibody was detected with secondary antibody (goat anti-rabbit IgG, whole molecule; Sigma) conjugated to Horse Radish Peroxidase (HRP) by incubating at room temperature for 45 minutes. Following four further washes with PBSA, 0.05% Tween 20, the secondary antibody was visualised by enhanced chemiluminescence.
Similar to the studies performed with inhibition of binding of VP16 to VP22, peptides A to J, which span residues 18 to 144 of VP22trunc, were used to examine whether gB binding could also be prevented (FIG. 12B).

[2] = Solubility of synthetic peptides in buffer; format: physicochemical; settings: peptides dissolved in 20 mM Tris-HCl, pH 8.0, 250 mM NaCl; unpurified preparations
Experimental: Synthesis and Purification of Oligopeptides. Peptides were synthesised by continuous flow Fmoc chemistry (Atherton and Sheppard, 1989; McLean et al., 1991) and, where stated in the text, were purified by preparative reverse-phase HPLC (Owsianka et al., 1993). The Mr values of peptides were determined by fast atom bombardment mass spectrometry (M-Scan) and corresponded to the predicted values. Peptides were dissolved in 20 mM Tris-HCl, pH 8.0, 250 mM NaCl and centrifuged at 11,500 g for 1 minute prior to use. […] Precipitates were removed by centrifugation before use.

T1 sequence (P06492 whole entry): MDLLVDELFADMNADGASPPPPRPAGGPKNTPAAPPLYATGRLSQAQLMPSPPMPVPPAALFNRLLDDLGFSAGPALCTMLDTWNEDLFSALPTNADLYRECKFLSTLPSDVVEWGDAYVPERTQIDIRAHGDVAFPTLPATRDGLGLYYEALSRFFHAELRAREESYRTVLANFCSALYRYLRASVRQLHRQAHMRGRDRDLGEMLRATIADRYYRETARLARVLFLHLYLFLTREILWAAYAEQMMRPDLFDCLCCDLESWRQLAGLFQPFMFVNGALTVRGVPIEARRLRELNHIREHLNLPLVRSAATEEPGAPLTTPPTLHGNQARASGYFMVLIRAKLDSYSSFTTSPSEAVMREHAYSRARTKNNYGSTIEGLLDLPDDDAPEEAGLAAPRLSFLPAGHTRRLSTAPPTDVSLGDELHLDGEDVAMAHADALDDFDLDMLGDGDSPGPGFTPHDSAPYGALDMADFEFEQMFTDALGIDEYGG
T2 sequence (P06492 whole entry): as above
T3 sequence (P10211 798-904): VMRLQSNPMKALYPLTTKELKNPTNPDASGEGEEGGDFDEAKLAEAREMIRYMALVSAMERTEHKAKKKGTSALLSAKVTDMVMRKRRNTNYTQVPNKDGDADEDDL

## ITTIRVTVCEGKNLLQRANE [Peptide H]
[1]
  Co-elution of VP16 with VP22trunc from Ni-NTA resin after incubation with peptide: does not prevent interaction with VP22
VP16
  Direct binding of VP16 to plate-coated peptide (ELISA): evidence also for VP16 binding
gB/VP22trunc binding
  Inhibition of GST-gB binding to VP22trunc (Far Western): completely inhibited binding of gB
[2]
  Solubility: soluble
